Data taken from patent US20250066498A1 (GO THERAPEUTICS, published 2025).
Residue numbers refer to the chain shown, from its start. Like-named read-outs stand apart in the source and are kept apart here. Ends that are not written are not given here. GalNAc = N-acetylgalactosamine O-linked to a serine or threonine side chain

Assays:
[1] = target: T1, Tn-glycosylated LAMP1 on COSMC knock-out cells (human, UniProt P11279 29-417, Truncated O-glycans (Tn, GalNAc alpha1-O-Ser/Thr), because the COSMC chaperone is knocked out); experiment: cell-based or functional assay
T1 sequence (looked up): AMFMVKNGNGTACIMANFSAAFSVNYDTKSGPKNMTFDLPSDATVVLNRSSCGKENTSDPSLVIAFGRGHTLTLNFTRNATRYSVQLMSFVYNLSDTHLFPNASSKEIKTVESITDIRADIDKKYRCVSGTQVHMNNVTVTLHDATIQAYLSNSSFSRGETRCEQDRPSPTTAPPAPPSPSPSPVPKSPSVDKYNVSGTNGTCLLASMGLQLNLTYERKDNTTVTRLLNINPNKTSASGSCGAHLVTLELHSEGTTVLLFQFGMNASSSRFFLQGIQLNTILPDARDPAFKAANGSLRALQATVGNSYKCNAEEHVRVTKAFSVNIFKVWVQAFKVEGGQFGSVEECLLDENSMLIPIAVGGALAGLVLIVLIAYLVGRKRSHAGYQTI

[2] = target: T1, Tn-glycosylated LAMP1 on COSMC …; experiment: cell-based or functional assay; remark: listed apart in the source
[3] = target: T2, LAMP1 without Tn glycans on wild type cells (human, UniProt P11279 29-417, No Tn antigen (the wild type cells are Tn-negative)); experiment: cell-based or functional assay
T2 sequence (looked up): T1 sequence (looked up)

[4] = target: T1, Tn-glycosylated LAMP1 on COSMC …; experiment: cell-based or functional assay; remark: listed apart in the source
[5] = target: T2, LAMP1 without Tn glycans on wild type …; experiment: cell-based or functional assay; remark: listed apart in the source
[6] = target: T3, LAMP1-Tn peptide Biotin-CEQDRPSPTTAPPAPPSPSP (human, N-terminal biotin; O-linked GalNAc on the serine at position 7 and the threonines at positions 9 and 10); experiment: ELISA on plate-coated LAMP1-GP
T3 construct: Synthetic 20-mer glycopeptide made by FMOC synthesis; also called LAMP1 glycopeptide; glycosylated LAMP1 peptide
T3 peptide: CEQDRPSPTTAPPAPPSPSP
Description: 96-well Corning high bind ELISA microplates plates were coated with LAMP1 peptides titrated in 0.2 M bicarbonate buffer, pH 9.4 overnight at 4° C. in concentrations ranging from 0.08 μg/ml to 10 μg/ml. BSA was used as a control/measure of background. The plates were then blocked with SuperBlock™ (Thermo Fisher) for 1 hr at room temperature. After plate washing, the humanized variants of 13C3 were incubated on the ELISA plate for 1 hour. All tested variants were expressed and purified using conventional methods. Briefly, Expi-293 cells were transiently transfected with heavy and light chain constructs, antibodies were secreted into supernatant and purified using Protein A agarose beads. The plates were then washed, and then incubated with secondary antibody (1/3000 Goat Anti-mouse IgG (H+L) HRP (Abcam 62-6520)) for 1 hour. The plate was then washed and color was developed with 1-Step™ Ultra TMB (Thermo Fisher) for 2 minutes. Color development was then stopped with 2 N Sulfuric Acid. Absorbance at 450 nm was then measured.

[7] = target: T3, LAMP1-Tn peptide …; experiment: BLI (Octet), LAMP1-GP on biosensor
[8] = target: T4, podoplanin glycopeptide ERGTKPPLEELSGK; experiment: BLI (Octet), peptide on biosensor, apparent affinity (Example 3)
T4 construct: also called PDPN glycopeptide; Tn antigen derived from podoplanin
T4 peptide: ERGT(GalNAc)KPPLEELSGK
Description: Antibody affinity and epitope binning of monoclonal antibodies can be assessed against specific antigens using BLI. […] The affinity is determined by fitting the binding curve to a specific model: a 1:1 monovalent model or a 2:1 bivalent model. The error (>95% confidence) is calculated by how close the generated curve matches the model.
To characterize the cross-reactivity between mAb237 the anti-glyco-LAMP1 antibodies 3C7, 13C3, and 13G2, the affinities of mAb237, 3C7, 13C3, and 13G2 against the glycosylated LAMP1 peptide, the unglycosylated LAMP1 peptide, and the podoplanin glycopeptide were determined by Octet. Table 8 summarizes the dissociation constants (Kd) for mAb237, 3C7, 13C3, and 13G2 against the glycosylated LAMP1 peptide, the unglycosylated LAMP1 peptide, and the podoplanin glycopeptide. No cross reactivity was observed despite the sequence similarities observed between mAb237 and 3C7, 13C3, and 13G2.

B1: 13C3-CART (other)
chain: DVVMTQTPLSLPVSLGDQASISCRSSQSLVHSNGNTYLHWYLQKPGQSPKLLINKVSNRFSGVPDRFSGSGSGTDFTLKISRVEAEDLGVYFCSQSTHVPRTFGGGTKLEIKGGGGSGGGGSGGGGSEVKLEDSGGGLVQPGGSMKLSCAASGFTFSDAWMDWVRHSPEKGLEWVAELRSKAFNHATYYAESVKGRFTISRDDSKSTVYLQMNSLRAEDTGIYYCTPNWDEGFAYWGQGTLVTVSATTTPAPRPPTPAPTIASQPLSLRPEACRPAAGGAVHTRGLDFACDFWVLVVVGGVLACYSLLVTVAFIIFWVRSKRSRLLHSDYMNMTPRRPGPTRKHYQPYAPPRDFAAYRSRVKFSRSADAPAYQQGQNQLYNELNLGRREEYDVLDKRRGRDPEMGGKPRRKNPQEGLYNELQKDKMAEAYSEIGMKGERRRGKGHDGLYQGLSTATKDTYDALHMQALPPR
With B1 as the binder, how does the “Time to kill 50% of cells (KT50), HaCAT COSMC-KO target cells, T cell ratio 10:1” value [1] read?
Its value is 7.3 h.

B2: 13G2-CART (other)
chain: DVVMTQIPLSLCVSLGDQASISCRSSQSLVHNNGNTYLHWYLQKPGQSPKLLINKVSKRFTGVPDRFSGSGSGTDFTLKISRVEAEDLGVYFCSQSTHVPRTFGGGTKLEIKGGGGSGGGGSGGGGSEVRLEESGGGLVQPGGSMKLSCVASGFTFSDAWMDWVRQSPERGLEWVAELRSKTFNHATYYAESVRGRFTISRDDSKSTVYLQMNSLRAEDTGIYYCSPNWDEGFAYWGQGTLVTVSATTTPAPRPPTPAPTIASQPLSLRPEACRPAAGGAVHTRGLDFACDFWVLVVVGGVLACYSLLVTVAFIIFWVRSKRSRLLHSDYMNMTPRRPGPTRKHYQPYAPPRDFAAYRSRVKFSRSADAPAYQQGQNQLYNELNLGRREEYDVLDKRRGRDPEMGGKPRRKNPQEGLYNELQKDKMAEAYSEIGMKGERRRGKGHDGLYQGLSTATKDTYDALHMQALPPR
With B2 as the binder, how does the “Time to kill 50% of cells (KT50), HaCAT COSMC-KO target cells, T cell ratio 10:1” value [1] read?
Its value is 8.75 h.

B3: 13G2-ADC (GGFG-DX8951) (other)
VH: EVRLEESGGGLVQPGGSMKLSCVASGFTFSDAWMDWVRQSPERGLEWVAELRSKTFNHATYYAESVRGRFTISRDDSKSTVYLQMNSLRAEDTGIYYCSPNWDEGFAYWGQGTLVTVSA
VL: DVVMTQIPLSLCVSLGDQASISCRSSQSLVHNNGNTYLHWYLQKPGQSPKLLINKVSKRFTGVPDRFSGSGSGTDFTLKISRVEAEDLGVYFCSQSTHVPRTFGGGTKLEIK
modifications: MC-GGFG-DX8951 covalently attached to the antibody (maleimide); site not stated; DAR ~5.6
Which “IC50 for cell death, T47D COSMC-KO cells” value [2] does the source give for B3 here?
Its value is 5.6 nM.

And the “IC50 for cell death, T47D cells” value [3]?
Its value is 4.4 nM.

B4: 13C3-ADC (GGFG-DX8951) (other)
VH: B3 VH with R3K, E6D, V23A, Q39H, R43K, T55A, R67K, S99T
VL: B3 VL with I7T, C12P, N32S, K58N, T61S
modifications: MC-GGFG-DX8951 covalently attached to the antibody (maleimide); site not stated; DAR ~3.1
Which “IC50 for cell death, T47D COSMC-KO cells” value [2] does the source give for B4 here?
Its value is 5.6 nM.

What about the “IC50 for cell death, T47D cells” value [3] of the same binder?
The value was 205 nM.

B5: GO-13C3 mouse (vc-PAB-MMAE ADC) (other)
VH: B3 VH with R3K, E6D, V23A, Q39H, R43K, T55A, R67K, S99T
VL: B3 VL with I7T, C12P, N32S, K58N, T61S
modifications: Cleavable MMAE with maleimide (vc-PAB-MMAE) covalently linked; site not stated; DAR ~4
Which results are given for B5?
IC50 for cell death, T47D COSMC-KO cells [4]: 4.5 nM; IC50 for cell death, T47D cells [5]: > 100000 nM

B6: 3C7-ADC (GGFG-DX8951) (other)
VH: EVKLEESGGGLVQPGGSMKVSCGASGFTFSDAWMDWVRQSPEKGLEWVAEMRSKAFNHAIYYAESVKGRFTISRDDSKSRVYLQMNLLRPEDTGIYYCTPNWDEGFAYWGQGTLVTVSA
VL: B3 VL with V3M, M4L, I7T, C12P, N32S, K58N, T61F
modifications: MC-GGFG-DX8951 covalently attached to the antibody (maleimide); site not stated; the DAR could not be calculated
Which results are given for B6?
IC50 for cell death, T47D COSMC-KO cells [2]: 4.5 nM; IC50 for cell death, T47D cells [3]: 504 nM

B7: GO-13C3-Human-v1 (vc-PAB-MMAE ADC) (other)
VH: EVQLVESGGGLVQPGGSLRLSCAASGFTFSDAWMDWVRHAPGKGLEWVAELRSKAFNHATYYAESVKGRFTISRDDSKNSVYLQMNSLKTEDTAVYYCTPNWDEGFAYWGQGTLVTVSS
VL: DVVMTQSPLSLPVTLGQPASISCRSSQSLVHSNGNTYLHWYQQRPGQSPRLLINKVSNRFSGVPDRFSGSGSGTDFTLKISRVEAEDVGVYFCSQSTHVPRTFGGGTKVEIK
modifications: Cleavable MMAE with maleimide (vc-PAB-MMAE) covalently linked; site not stated; DAR ~4
What does the source list for B7?
IC50 for cell death, T47D COSMC-KO cells [4]: 5.03 nM; IC50 for cell death, T47D cells [5]: > 100000 nM

B8: 13C3-HV-23-B/13C3 KV2-A (antibody, V domains shown)
VH: B7 VH with V5L, H39Q, A49S, S80T, V81L, K89R, T90A
VL: B7 VL
notes: Humanized 13C3; also called HV23B/KV2A; humanized 13C3 candidate 3
Which results are given for B8?
EC50 [6]: 0.0191 µg/mL; Kd [7]: 0.85 nM

B9: GO-13C3-Human-v2 (vc-PAB-MMAE ADC) (other)
VH: B7 VH with V5L, H39Q, A49S, S80T, V81L, K89R, T90A
VL: B7 VL
modifications: Cleavable MMAE with maleimide (vc-PAB-MMAE) covalently linked; site not stated; DAR ~4
For B9, which “IC50 for cell death, T47D COSMC-KO cells” value [4] is on record?
Its value is 5.4 nM.

And the “IC50 for cell death, T47D cells” value [5]?
Its value is > 100000 nM.

B10: 13C3-HV-72-A/13C3 KV2-A (antibody, V domains shown)
VH: B7 VH
VL: B7 VL
notes: Humanized 13C3; also called HV-72A/KV2A; humanized 13C3 candidate 2
B10 was tested. Which EC50 [6] did it give?
The EC50 was 0.0262 µg/mL.

What about the Kd [7] of the same binder?
The Kd was 3.1 nM.

B11: 13C3-HV-23-C/13C3 KV2-A (antibody, V domains shown)
VH: B7 VH with V5L, H39Q, A49S, L51I, K54S, S80T, V81L, K89R, T90A
VL: B7 VL
notes: Humanized 13C3; also called humanized 13C3 candidate 5
B11 was tested. Which EC50 [6] did it give?
The EC50 was 0.0155 µg/mL.

What about the Kd [7] of the same binder?
The Kd was 23.5 nM.

B12: 13C3-HV-72-B/13C3 KV2-A (antibody, V domains shown)
VH: B7 VH with H39Q, A49G, V81L
VL: B7 VL
notes: Humanized 13C3; also called humanized 13C3 candidate 4
Which results are given for B12?
EC50 [6]: 0.0257 µg/mL; Kd [7]: 8.2 nM

B13: mAb237 (antibody, V domains shown)
VH: QVQLQQSGGGLVQPGGSMKIFCAASGFTFSDAWMDWVRQSPEKGLEWVAEIRNKANNHETYYAESVKGRFTITRDDSKSRMSLQMNSLRAEDTGIYYCSGGKVRNAYWGQGTTVTVSS
VL: DIQLTQTPLSLPVSLGDQASISCRSSQSLVHSVGNTYLHWYLQKPGQSPKLLIYKVSNRFSGVPDRFSGSGSGTDFTLKISSVEAEDLGVYFCSQSTHVPTFGGGTKLEIK
notes: Recombinant mouse antibody bought from Creative Biolabs (Brooks et al., 2010), specific for the podoplanin Tn glycopeptide; also called wild type mAb237
With B13 as the binder, how does the Kd [8] read?
The Kd was 1.53 nM.
